Assay results reported in patent publication US20240254222A1 (Bayer, published 2024).

B1: TPP-15374 (antibody, human IgG1, lambda, V domains shown)
VH: EVQLLESGGGLVQPGGSLRLSCAASGFTFSSYEMNWVRQAPGKGLEWVSGISWNSGSIGYADSVKGRFTISRDNSKNTLYLQMNSLRAEDTAVYYCARSGYSSSWFDPDFDYWGQGTLVTVSS
VL: QSVLTQPPSASGTPGQRVTISCTGSSSNIGAGYDVHWYQQLPGTAPKLLIYGNSNRPSGVPDRFSGSKSGTSASLAISGLRSEDEADYYCSSYAGSNPYVVFGGGTKLTVLG
notes: human IgG1; also called IgG1, hit from panning; parental mAb
B2: TPP-15370 (antibody, human IgG1, lambda, V domains shown)
VH: EVQLLESGGGLVQPGGSLRLSCAASGFTFSSYGMHWVRQAPGKGLEWVSAIGTGGDTYYADSVMGRFTISRDNSKNTLYLQMNSLRAEDTAVYYCARRDDYTSRDAFDVWGQGTLVTVSS
VL: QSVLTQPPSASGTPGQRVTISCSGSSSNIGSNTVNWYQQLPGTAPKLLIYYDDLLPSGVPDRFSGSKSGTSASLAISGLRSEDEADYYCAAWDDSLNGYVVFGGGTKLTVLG
notes: as for B1

Key:
[1] = target: T1, Human Semaphorin3A-Fc (R&D Systems), TPP-13211 (human); assay: competition ELISA on coated TPP-13211, competitor biotinylated TPP-15374
T1 construct: R&D Systems 1250-S3; also called recombinant human Sema3A-Fc chimera
T1 sequence (chain, as listed by the source limits assumed): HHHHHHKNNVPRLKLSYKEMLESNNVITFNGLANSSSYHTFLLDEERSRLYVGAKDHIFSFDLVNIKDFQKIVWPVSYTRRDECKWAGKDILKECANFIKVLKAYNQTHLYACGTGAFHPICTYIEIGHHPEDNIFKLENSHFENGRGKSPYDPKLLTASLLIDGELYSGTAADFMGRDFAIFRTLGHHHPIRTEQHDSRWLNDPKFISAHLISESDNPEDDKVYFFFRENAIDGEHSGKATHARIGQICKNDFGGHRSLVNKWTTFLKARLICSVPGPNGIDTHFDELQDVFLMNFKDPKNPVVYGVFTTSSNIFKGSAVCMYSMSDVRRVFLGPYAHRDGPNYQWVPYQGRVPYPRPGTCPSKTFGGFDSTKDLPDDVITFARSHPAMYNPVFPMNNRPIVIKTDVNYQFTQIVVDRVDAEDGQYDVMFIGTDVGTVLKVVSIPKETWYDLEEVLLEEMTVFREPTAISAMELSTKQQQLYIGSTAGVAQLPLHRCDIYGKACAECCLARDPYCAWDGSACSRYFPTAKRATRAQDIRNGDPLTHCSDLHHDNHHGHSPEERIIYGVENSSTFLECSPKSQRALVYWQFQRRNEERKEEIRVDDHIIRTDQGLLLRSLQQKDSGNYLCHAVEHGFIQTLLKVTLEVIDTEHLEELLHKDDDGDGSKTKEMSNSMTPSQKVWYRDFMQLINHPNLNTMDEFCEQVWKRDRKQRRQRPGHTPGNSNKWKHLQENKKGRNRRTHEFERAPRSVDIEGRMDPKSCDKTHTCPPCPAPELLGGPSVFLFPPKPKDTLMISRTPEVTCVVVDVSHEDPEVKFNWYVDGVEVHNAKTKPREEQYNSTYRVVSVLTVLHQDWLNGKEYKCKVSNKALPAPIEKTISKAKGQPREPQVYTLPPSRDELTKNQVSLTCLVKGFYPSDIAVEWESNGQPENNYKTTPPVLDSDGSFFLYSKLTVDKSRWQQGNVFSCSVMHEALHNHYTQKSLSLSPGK
Description: For screening in a competition ELISA setup, human Sema3a (TPP-13211) was coated onto 384-well plates (Greiner bio-one, 781077) with a concentration of 0.5 μg/ml in coating buffer (Carbonate-Basis pH 9.6, Candor 121125) over night at 10° C. After washing the plates 3 times with 50 μl PBS 0.05% Tween the plates were blocked with 50 μl Smart Block® (Candor 113500) for 1 h at 20° C. and washed again 3 times as described.
Subsequently, 20 μl of pre-mixed antibody solution was added to the plates and incubate for 18 h at 10° C. […] The total concentration of the added antibody solution was 0.25 μg/ml. During the incubation time the antibodies bound to the plates in a competitive manner as they compete for the same epitope on the human Sema3A protein.
After subsequent washing with 50 μl PBS 0.05% Tween for 3 times, 20 μl of a Streptavidin-HRP solution (R&D Systems, DY998, 1:200 in PBS 0.05% Tween 10% Smart Block) were added and incubated for 1 h and 20° C. followed by subsequent washing 3 times with 50 μl PBS 0.05% Tween and addition of 20 μl Amplex Red solution (Invitrogen A12222, 1:1000 in NaP-buffer 50 mM pH7.6 with 1:10000 of 30% H2O2). After a final incubation for 20 min at 20° C. the signal was determined using an emission wavelength of 595 nm and excitation of 530 nm.

Sema3E (R&D Systems) = target: T2, Sema3E (R&D Systems) (Homo sapiens (Human), UniProt O15041 26-775); assay: ELISA
T2 sequence: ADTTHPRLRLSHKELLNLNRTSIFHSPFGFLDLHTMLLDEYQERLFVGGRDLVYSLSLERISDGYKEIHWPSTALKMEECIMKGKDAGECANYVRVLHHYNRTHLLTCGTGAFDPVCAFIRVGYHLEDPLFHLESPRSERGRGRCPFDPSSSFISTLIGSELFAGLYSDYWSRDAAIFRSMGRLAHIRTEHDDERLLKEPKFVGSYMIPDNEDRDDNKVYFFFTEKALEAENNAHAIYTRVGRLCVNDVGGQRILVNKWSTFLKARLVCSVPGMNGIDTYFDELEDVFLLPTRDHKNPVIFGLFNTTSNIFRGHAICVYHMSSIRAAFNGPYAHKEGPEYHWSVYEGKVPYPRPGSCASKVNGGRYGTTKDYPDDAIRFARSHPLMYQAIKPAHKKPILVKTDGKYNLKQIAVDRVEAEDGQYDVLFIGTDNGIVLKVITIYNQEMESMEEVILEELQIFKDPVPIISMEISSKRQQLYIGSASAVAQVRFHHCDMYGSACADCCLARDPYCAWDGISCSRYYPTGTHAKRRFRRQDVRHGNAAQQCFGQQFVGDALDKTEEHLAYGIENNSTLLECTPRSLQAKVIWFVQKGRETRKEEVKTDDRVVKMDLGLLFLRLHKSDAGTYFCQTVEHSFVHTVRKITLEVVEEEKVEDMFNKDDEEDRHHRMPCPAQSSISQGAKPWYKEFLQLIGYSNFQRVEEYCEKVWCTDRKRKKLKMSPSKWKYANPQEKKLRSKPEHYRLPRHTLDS

Sema3B (R&D Systems) = target: T3, Sema3B (R&D Systems) (Homo sapiens (Human), UniProt Q13214 25-749); assay: ELISA
T3 sequence: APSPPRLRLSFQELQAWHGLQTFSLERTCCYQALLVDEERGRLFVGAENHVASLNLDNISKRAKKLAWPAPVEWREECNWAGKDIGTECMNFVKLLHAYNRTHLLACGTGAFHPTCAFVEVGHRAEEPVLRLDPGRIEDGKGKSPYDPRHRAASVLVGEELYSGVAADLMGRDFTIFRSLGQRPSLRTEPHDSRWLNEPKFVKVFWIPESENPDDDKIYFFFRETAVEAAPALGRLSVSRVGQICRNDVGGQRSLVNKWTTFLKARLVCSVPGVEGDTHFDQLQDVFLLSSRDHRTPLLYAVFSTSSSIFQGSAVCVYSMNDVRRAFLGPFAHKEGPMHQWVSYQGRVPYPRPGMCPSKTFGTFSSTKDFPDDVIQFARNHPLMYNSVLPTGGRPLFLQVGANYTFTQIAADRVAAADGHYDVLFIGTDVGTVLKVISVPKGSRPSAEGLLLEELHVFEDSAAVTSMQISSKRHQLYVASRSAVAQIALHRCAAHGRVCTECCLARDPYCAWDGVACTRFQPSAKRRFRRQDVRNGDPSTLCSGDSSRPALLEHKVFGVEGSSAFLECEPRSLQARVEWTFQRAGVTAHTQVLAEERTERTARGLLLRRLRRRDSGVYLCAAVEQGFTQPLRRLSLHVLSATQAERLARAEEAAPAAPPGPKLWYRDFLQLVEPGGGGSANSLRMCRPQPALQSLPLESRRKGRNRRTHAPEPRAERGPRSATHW

Sema3C (R&D Systems) = target: T4, Sema3C (R&D Systems) (Homo sapiens (Human), UniProt Q99985 21-751); assay: ELISA
T4 sequence: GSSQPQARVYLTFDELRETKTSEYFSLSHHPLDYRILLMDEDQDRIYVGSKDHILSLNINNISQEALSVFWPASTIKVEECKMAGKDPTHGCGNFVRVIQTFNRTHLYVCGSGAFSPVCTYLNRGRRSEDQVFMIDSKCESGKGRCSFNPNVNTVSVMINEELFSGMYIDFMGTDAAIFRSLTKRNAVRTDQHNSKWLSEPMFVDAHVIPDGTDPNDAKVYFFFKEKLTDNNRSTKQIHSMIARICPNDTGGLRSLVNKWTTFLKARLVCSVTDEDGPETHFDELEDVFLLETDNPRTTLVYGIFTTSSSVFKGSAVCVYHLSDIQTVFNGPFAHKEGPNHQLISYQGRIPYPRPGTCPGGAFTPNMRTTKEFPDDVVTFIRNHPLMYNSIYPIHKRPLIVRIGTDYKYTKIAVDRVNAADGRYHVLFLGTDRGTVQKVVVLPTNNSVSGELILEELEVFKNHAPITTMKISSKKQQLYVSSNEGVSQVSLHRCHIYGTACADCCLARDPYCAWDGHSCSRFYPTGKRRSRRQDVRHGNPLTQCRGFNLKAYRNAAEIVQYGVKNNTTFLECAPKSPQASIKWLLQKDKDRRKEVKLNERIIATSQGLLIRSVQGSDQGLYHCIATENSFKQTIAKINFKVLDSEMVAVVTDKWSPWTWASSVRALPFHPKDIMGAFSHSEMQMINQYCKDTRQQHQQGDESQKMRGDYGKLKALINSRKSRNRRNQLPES

| Binder | VAL norm to TPP-9809 (1 to 1 ratio) [1] | VAL norm to TPP-9809 (1 to 5 ratio) [1] | binding result (Sema3E (R&D Systems)) | binding result (Sema3B (R&D Systems)) | binding result (Sema3C (R&D Systems)) |
| --- | --- | --- | --- | --- | --- |
| B1 | 0.69 | 0.41 | no binding | no binding | no binding |
| B2 | – | – | no binding | no binding | no binding |
